For assay [1], the target named is human FcγIIA (R&D systems, 1330-CD) (human) (UniProt P12318). The assay can be described thus: BLI, His-FcγRIIA on HIS1K sensor.
For assay [2], the target named is HER2 on human cancer cell lines (NCI-N87, BT474, SK-OV-3, SNU-1, SNU-5, SNU-601) (human) (UniProt P04626). The assay can be described thus: flow cytometry Fc load, SNU5 cells.
Assay [3] has the same target. The assay can be described thus: flow cytometry Fc load, SNU601 cells.
Assay [4] addresses human FcγRI (R&D systems, 1257-FC) (human) (UniProt P12314). The assay can be described thus: BLI, His-FcγRI on HIS1K sensor.
Assay [5] deals with human HER2 on CT26-HER2 cell line (Clone #2-60) (human) (UniProt P04626). The assay can be described thus: flow cytometry Fc load, CT26-HER2 (#2-60) cells.
Assay [6] addresses HER2 on human cancer cell lines (NCI-N87, BT474, SK-OV-3, SNU-1, SNU-5, SNU-601) (human) (UniProt P04626). The assay is described as follows: flow cytometry Fc load, SK-OV-3 cells.
Assay [7] has the same target. The assay is described as follows: flow cytometry Fc load, NCI-N87 cells.
For assay [8] the target is unchanged. The assay is described as follows: flow cytometry Fc load, SNU-1 cells.
For assay [9], the target named is human HER2 recombinant protein (R&D systems, 1129-ER) (human) (UniProt P04626). The assay is described as follows: BLI sequential binding on HER2-loaded sensor.
Assay [10] deals with HER2 on human cancer cell lines (NCI-N87, BT474, SK-OV-3, SNU-1, SNU-5, SNU-601) (human) (UniProt P04626). The assay is described as follows: flow cytometry Fc load, BT474 cells.
Assay [11] has the same target. The assay is described as follows: flow cytometry Fc load, SNU-5 cells.

Sequence of human FcγIIA (R&D systems, 1330-CD) (human) (P12318 36-218 H167R): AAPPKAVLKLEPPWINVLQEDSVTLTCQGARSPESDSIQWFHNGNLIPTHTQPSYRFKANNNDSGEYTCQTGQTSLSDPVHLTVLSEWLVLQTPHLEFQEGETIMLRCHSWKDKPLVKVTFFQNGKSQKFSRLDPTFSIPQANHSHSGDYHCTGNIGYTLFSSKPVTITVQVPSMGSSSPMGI
Sequence of human FcγRI (R&D systems, 1257-FC) (human) (P12314 16-288 limits assumed): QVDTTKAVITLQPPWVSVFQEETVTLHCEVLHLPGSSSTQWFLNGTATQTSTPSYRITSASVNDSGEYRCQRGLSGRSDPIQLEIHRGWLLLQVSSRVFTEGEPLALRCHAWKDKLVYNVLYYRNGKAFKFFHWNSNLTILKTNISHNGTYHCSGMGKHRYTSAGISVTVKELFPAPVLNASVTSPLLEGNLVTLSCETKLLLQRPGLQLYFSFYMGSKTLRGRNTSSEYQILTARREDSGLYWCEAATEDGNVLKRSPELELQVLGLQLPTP

“human IgG1 (Bio X cell, BE0297) (antibody)”: the Kd in assay [1] is 310 nM; in assay [4], 2.46 nM. Also, the GMFI in assay [2] amounted to 101; in assay [3], 173; in assay [5], 150.

Substance pertuzumab (antibody) had a dissociation constant Kd in [1] of 359 nM.

For the substance trastuzumab + pertuzumab (combination), the GMFI in assay [6] was 6450; in assay [7] it was 137000; in [8] it was 2690; in [10] it was 38700; in [11], 1390. Further, the binding signal (nm shift, value at 4140 s minus value at 1260 s) in assay [9] was 0.923 nm.

(Values after patent US20250236682A1.)
